Laboratory results as given in the supplement of paper PMC10065799, “High-throughput profiling of sequence recognition by tyrosine kinases and SH2 domains using bacterial peptide display” (eLife, 2023).
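Note: 11-residue human phosphosite peptides and single-mutation variants displayed on the E. coli surface, counted by deep sequencing, each peptide's frequency after selection divided by its frequency in the unselected input library; frequency after pTyr selection over input frequency; kinase dosed for 20-30% of maximal phosphorylation in three min.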

What follows are sequences tested against MERTK (UniProt Q12866) (assay: phosphorylation enrichment, bacterial display (enrichment ratio); higher = better substrate or ligand; peptides without Tyr show the background).
Chain of MERTK (Q12866 whole entry, looked up): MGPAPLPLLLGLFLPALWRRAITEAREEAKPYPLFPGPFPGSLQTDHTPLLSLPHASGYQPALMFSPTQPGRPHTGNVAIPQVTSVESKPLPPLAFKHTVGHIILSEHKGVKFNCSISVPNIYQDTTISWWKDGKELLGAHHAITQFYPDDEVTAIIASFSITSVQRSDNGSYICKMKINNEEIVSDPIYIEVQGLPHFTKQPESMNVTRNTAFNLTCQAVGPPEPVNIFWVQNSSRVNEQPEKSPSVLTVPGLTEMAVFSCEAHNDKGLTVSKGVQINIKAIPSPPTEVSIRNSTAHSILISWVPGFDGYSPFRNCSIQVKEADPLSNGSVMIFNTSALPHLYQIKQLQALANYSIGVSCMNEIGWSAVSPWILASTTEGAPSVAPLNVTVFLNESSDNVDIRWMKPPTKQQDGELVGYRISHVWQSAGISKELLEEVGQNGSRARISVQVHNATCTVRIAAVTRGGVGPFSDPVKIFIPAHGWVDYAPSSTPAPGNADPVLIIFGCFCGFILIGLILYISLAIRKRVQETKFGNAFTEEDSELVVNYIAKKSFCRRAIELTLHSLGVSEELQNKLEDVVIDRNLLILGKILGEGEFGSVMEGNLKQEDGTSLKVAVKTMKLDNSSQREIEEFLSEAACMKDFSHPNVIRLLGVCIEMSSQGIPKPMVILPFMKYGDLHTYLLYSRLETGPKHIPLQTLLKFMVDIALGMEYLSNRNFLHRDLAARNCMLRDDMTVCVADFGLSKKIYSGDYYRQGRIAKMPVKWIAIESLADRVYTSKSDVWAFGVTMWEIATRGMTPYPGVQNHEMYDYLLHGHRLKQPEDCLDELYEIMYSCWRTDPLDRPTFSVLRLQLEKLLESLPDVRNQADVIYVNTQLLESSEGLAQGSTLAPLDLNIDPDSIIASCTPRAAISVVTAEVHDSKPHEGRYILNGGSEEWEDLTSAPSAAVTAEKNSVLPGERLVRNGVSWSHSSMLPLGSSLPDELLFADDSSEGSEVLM
For KNNDGNIDYAE [MCFD2_Y135_Y135N], the phosphorylation enrichment was 0.479.
DPKFHYDNTAG [KDR_Y1214] gave a phosphorylation enrichment of 0.505.
NHFKICNLCAE [PTEN_Y68_Y68C_YF] gave a phosphorylation enrichment of 0.484.
Sequence PDGREYIYVDP [PDGFRA_Y572_H570R] has a phosphorylation enrichment of 1.42.
In the case of GMIQAYSSSQR [DES_Y5_S2I], the phosphorylation enrichment is reported as 0.357.
EGNERYEGFCV [GRIA3_Y451_YF] showed a phosphorylation enrichment of 0.431.
In the case of MENFIYESMQY [CYP19A1_Y361_R365Q], the phosphorylation enrichment is reported as 3.64.
Sequence PSDLLYIPDIQ [ITGA2B_Y845_L847P] has a phosphorylation enrichment of 0.953.
ITKQEYDEAGP [ACTA1_Y364] was tested, and the phosphorylation enrichment was 0.423.
For GYCSWYRGWAP [TIMP3_Y195], the phosphorylation enrichment was 0.975.
KKFVPYYDLFM [IPO5_Y530_E525K] gave a phosphorylation enrichment of 6.5.
IRRWVYPLTPE [EIF2B5_Y319] was tested, and the phosphorylation enrichment was 0.476.
For REVVNYVQKRS [RMI1_Y450_N455S], the phosphorylation enrichment was 0.68.
With GAVGNYSRGLA [MGMT_Y158_G160R] the phosphorylation enrichment was 0.353.
ATFRGYDSDNP [MMUT_Y146_H143Y_YF] showed a phosphorylation enrichment of 0.373.
For QYKGKYLAKHN [CASK_Y712_D710G], the phosphorylation enrichment was 0.835.
With FLGKGYSDGGC [MC4R_Y35_S30F] the phosphorylation enrichment was 0.552.
For RAKLFYQEVPA [METTL11B_Y76], the phosphorylation enrichment was 6.6.
With VREIRCQGGNR [VWF_Y1570_Y1570C] the phosphorylation enrichment was 0.406.
Sequence KRFAFYRDSPR [FOXE3_Y108_E103K] has a phosphorylation enrichment of 0.437.
Sequence TAGFSYEKWEI [TEC_Y360] has a phosphorylation enrichment of 0.549.
For EEEFEYMNRRR [ERBB3_Y1199_D1194E_YF], the phosphorylation enrichment was 0.724.
In the case of DPLLTYWFPPK [LMNA_Y481_R482W], the phosphorylation enrichment is reported as 9.17.
In the case of IKGNMYYENSY [EGFR_Y112_R108K], the phosphorylation enrichment is reported as 0.946.
For VLNHAYENLTR [SYNE2_Y3255_D3253H], the phosphorylation enrichment was 0.303.
With NLNGKYYKPRA [ANGPTL3_Y417_N418Y] the phosphorylation enrichment was 0.304.
In the case of RSAGKDDVYLI [MECP2_Y120_Y120D], the phosphorylation enrichment is reported as 0.399.
SVVVPYEPPEV [TP53_Y220] was tested, and the phosphorylation enrichment was 0.531.
With AEARMYGVLPW [PLP1_Y207_D203E] the phosphorylation enrichment was 1.54.
Work on ADKSAYLMGPN [MYH7_Y386_L390P] yielded a phosphorylation enrichment of 0.408.
VPHECYAKVFD [ALB_Y394_D389V] showed a phosphorylation enrichment of 0.497.
Sequence VKANTYEKFWL [GATM_Y100_P105L_YF] has a phosphorylation enrichment of 1.19.
Sequence FSLPAYMDRRD [COX4I1_Y38] has a phosphorylation enrichment of 0.425.

What follows are sequences tested against Fes (UniProt P07332) in the same assay as above.
Chain of Fes (P07332 whole entry, looked up): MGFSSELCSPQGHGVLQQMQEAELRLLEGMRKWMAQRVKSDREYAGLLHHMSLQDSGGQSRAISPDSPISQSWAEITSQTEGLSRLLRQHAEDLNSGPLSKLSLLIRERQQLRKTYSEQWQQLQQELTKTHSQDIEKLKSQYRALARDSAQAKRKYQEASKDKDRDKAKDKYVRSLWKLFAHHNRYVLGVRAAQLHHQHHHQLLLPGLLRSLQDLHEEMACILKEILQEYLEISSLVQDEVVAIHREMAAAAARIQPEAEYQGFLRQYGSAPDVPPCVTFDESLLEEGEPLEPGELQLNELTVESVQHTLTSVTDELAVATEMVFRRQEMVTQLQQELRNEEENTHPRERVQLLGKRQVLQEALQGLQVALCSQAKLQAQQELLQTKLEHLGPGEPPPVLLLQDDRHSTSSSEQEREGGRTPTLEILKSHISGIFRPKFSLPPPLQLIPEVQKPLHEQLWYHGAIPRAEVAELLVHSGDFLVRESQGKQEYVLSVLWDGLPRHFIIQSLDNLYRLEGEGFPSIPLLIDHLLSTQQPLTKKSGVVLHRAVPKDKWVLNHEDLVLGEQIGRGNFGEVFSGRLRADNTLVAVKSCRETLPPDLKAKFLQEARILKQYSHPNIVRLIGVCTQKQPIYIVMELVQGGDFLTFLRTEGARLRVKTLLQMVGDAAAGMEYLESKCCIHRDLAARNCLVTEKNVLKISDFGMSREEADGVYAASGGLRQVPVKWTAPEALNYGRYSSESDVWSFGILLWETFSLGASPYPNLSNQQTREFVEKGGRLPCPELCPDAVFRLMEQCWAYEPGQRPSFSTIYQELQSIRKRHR
KNNDGNIDYAE [MCFD2_Y135_Y135N] showed a phosphorylation enrichment of 1.13.
DPKFHYDNTAG [KDR_Y1214] gave a phosphorylation enrichment of 0.79.
NHFKICNLCAE [PTEN_Y68_Y68C_YF] gave a phosphorylation enrichment of 0.687.
Sequence PDGREYIYVDP [PDGFRA_Y572_H570R] has a phosphorylation enrichment of 1.35.
Work on GMIQAYSSSQR [DES_Y5_S2I] yielded a phosphorylation enrichment of 0.509.
Sequence EGNERYEGFCV [GRIA3_Y451_YF] has a phosphorylation enrichment of 1.15.
MENFIYESMQY [CYP19A1_Y361_R365Q] was tested, and the phosphorylation enrichment was 3.36.
PSDLLYIPDIQ [ITGA2B_Y845_L847P] was tested, and the phosphorylation enrichment was 1.77.
ITKQEYDEAGP [ACTA1_Y364] gave a phosphorylation enrichment of 1.08.
For GYCSWYRGWAP [TIMP3_Y195], the phosphorylation enrichment was 1.53.
KKFVPYYDLFM [IPO5_Y530_E525K] gave a phosphorylation enrichment of 1.05.
IRRWVYPLTPE [EIF2B5_Y319] showed a phosphorylation enrichment of 0.943.
In the case of REVVNYVQKRS [RMI1_Y450_N455S], the phosphorylation enrichment is reported as 1.01.
In the case of GAVGNYSRGLA [MGMT_Y158_G160R], the phosphorylation enrichment is reported as 0.453.
In the case of ATFRGYDSDNP [MMUT_Y146_H143Y_YF], the phosphorylation enrichment is reported as 0.896.
For QYKGKYLAKHN [CASK_Y712_D710G], the phosphorylation enrichment was 0.979.
FLGKGYSDGGC [MC4R_Y35_S30F] was tested, and the phosphorylation enrichment was 1.14.
RAKLFYQEVPA [METTL11B_Y76] showed a phosphorylation enrichment of 1.02.
In the case of VREIRCQGGNR [VWF_Y1570_Y1570C], the phosphorylation enrichment is reported as 0.682.
Sequence KRFAFYRDSPR [FOXE3_Y108_E103K] has a phosphorylation enrichment of 0.643.
In the case of TAGFSYEKWEI [TEC_Y360], the phosphorylation enrichment is reported as 1.21.
In the case of EEEFEYMNRRR [ERBB3_Y1199_D1194E_YF], the phosphorylation enrichment is reported as 1.24.
Work on DPLLTYWFPPK [LMNA_Y481_R482W] yielded a phosphorylation enrichment of 1.13.
In the case of IKGNMYYENSY [EGFR_Y112_R108K], the phosphorylation enrichment is reported as 0.874.
In the case of VLNHAYENLTR [SYNE2_Y3255_D3253H], the phosphorylation enrichment is reported as 0.579.
In the case of NLNGKYYKPRA [ANGPTL3_Y417_N418Y], the phosphorylation enrichment is reported as 0.57.
Sequence RSAGKDDVYLI [MECP2_Y120_Y120D] has a phosphorylation enrichment of 0.862.
In the case of SVVVPYEPPEV [TP53_Y220], the phosphorylation enrichment is reported as 1.16.
AEARMYGVLPW [PLP1_Y207_D203E] showed a phosphorylation enrichment of 0.811.
ADKSAYLMGPN [MYH7_Y386_L390P] was tested, and the phosphorylation enrichment was 0.637.
In the case of VPHECYAKVFD [ALB_Y394_D389V], the phosphorylation enrichment is reported as 1.22.
In the case of VKANTYEKFWL [GATM_Y100_P105L_YF], the phosphorylation enrichment is reported as 1.07.
Sequence FSLPAYMDRRD [COX4I1_Y38] has a phosphorylation enrichment of 0.815.

These sequences were tested on AncSZ in the same assay as above.
KNNDGNIDYAE [MCFD2_Y135_Y135N] gave a phosphorylation enrichment of 1.13.
Sequence DPKFHYDNTAG [KDR_Y1214] has a phosphorylation enrichment of 0.667.
Sequence NHFKICNLCAE [PTEN_Y68_Y68C_YF] has a phosphorylation enrichment of 0.609.
PDGREYIYVDP [PDGFRA_Y572_H570R] gave a phosphorylation enrichment of 3.36.
GMIQAYSSSQR [DES_Y5_S2I] gave a phosphorylation enrichment of 0.485.
In the case of EGNERYEGFCV [GRIA3_Y451_YF], the phosphorylation enrichment is reported as 1.12.
MENFIYESMQY [CYP19A1_Y361_R365Q] gave a phosphorylation enrichment of 1.37.
With PSDLLYIPDIQ [ITGA2B_Y845_L847P] the phosphorylation enrichment was 2.
Work on ITKQEYDEAGP [ACTA1_Y364] yielded a phosphorylation enrichment of 1.14.
GYCSWYRGWAP [TIMP3_Y195] gave a phosphorylation enrichment of 1.38.
With KKFVPYYDLFM [IPO5_Y530_E525K] the phosphorylation enrichment was 0.895.
With IRRWVYPLTPE [EIF2B5_Y319] the phosphorylation enrichment was 0.934.
REVVNYVQKRS [RMI1_Y450_N455S] gave a phosphorylation enrichment of 0.981.
GAVGNYSRGLA [MGMT_Y158_G160R] showed a phosphorylation enrichment of 0.456.
ATFRGYDSDNP [MMUT_Y146_H143Y_YF] showed a phosphorylation enrichment of 0.904.
QYKGKYLAKHN [CASK_Y712_D710G] was tested, and the phosphorylation enrichment was 0.984.
With FLGKGYSDGGC [MC4R_Y35_S30F] the phosphorylation enrichment was 0.876.
With RAKLFYQEVPA [METTL11B_Y76] the phosphorylation enrichment was 1.95.
With VREIRCQGGNR [VWF_Y1570_Y1570C] the phosphorylation enrichment was 0.648.
KRFAFYRDSPR [FOXE3_Y108_E103K] was tested, and the phosphorylation enrichment was 0.538.
For TAGFSYEKWEI [TEC_Y360], the phosphorylation enrichment was 1.52.
For EEEFEYMNRRR [ERBB3_Y1199_D1194E_YF], the phosphorylation enrichment was 1.59.
Work on DPLLTYWFPPK [LMNA_Y481_R482W] yielded a phosphorylation enrichment of 2.78.
In the case of IKGNMYYENSY [EGFR_Y112_R108K], the phosphorylation enrichment is reported as 0.746.
With VLNHAYENLTR [SYNE2_Y3255_D3253H] the phosphorylation enrichment was 0.565.
NLNGKYYKPRA [ANGPTL3_Y417_N418Y] was tested, and the phosphorylation enrichment was 0.474.
RSAGKDDVYLI [MECP2_Y120_Y120D] was tested, and the phosphorylation enrichment was 0.755.
In the case of SVVVPYEPPEV [TP53_Y220], the phosphorylation enrichment is reported as 1.25.
AEARMYGVLPW [PLP1_Y207_D203E] was tested, and the phosphorylation enrichment was 0.767.
With ADKSAYLMGPN [MYH7_Y386_L390P] the phosphorylation enrichment was 0.636.
Sequence VPHECYAKVFD [ALB_Y394_D389V] has a phosphorylation enrichment of 1.07.
With VKANTYEKFWL [GATM_Y100_P105L_YF] the phosphorylation enrichment was 0.887.
In the case of FSLPAYMDRRD [COX4I1_Y38], the phosphorylation enrichment is reported as 0.873.

These sequences were tested on c-Abl (mouse) in the same assay as above.
KNNDGNIDYAE [MCFD2_Y135_Y135N] showed a phosphorylation enrichment of 0.62.
DPKFHYDNTAG [KDR_Y1214] gave a phosphorylation enrichment of 0.497.
NHFKICNLCAE [PTEN_Y68_Y68C_YF] gave a phosphorylation enrichment of 0.75.
PDGREYIYVDP [PDGFRA_Y572_H570R] showed a phosphorylation enrichment of 1.93.
For GMIQAYSSSQR [DES_Y5_S2I], the phosphorylation enrichment was 0.42.
EGNERYEGFCV [GRIA3_Y451_YF] showed a phosphorylation enrichment of 0.783.
MENFIYESMQY [CYP19A1_Y361_R365Q] showed a phosphorylation enrichment of 1.24.
PSDLLYIPDIQ [ITGA2B_Y845_L847P] was tested, and the phosphorylation enrichment was 1.89.
ITKQEYDEAGP [ACTA1_Y364] gave a phosphorylation enrichment of 0.679.
In the case of GYCSWYRGWAP [TIMP3_Y195], the phosphorylation enrichment is reported as 1.04.
Work on KKFVPYYDLFM [IPO5_Y530_E525K] yielded a phosphorylation enrichment of 0.686.
With IRRWVYPLTPE [EIF2B5_Y319] the phosphorylation enrichment was 0.464.
For REVVNYVQKRS [RMI1_Y450_N455S], the phosphorylation enrichment was 0.519.
For GAVGNYSRGLA [MGMT_Y158_G160R], the phosphorylation enrichment was 0.401.
With ATFRGYDSDNP [MMUT_Y146_H143Y_YF] the phosphorylation enrichment was 0.666.
Work on QYKGKYLAKHN [CASK_Y712_D710G] yielded a phosphorylation enrichment of 0.934.
Work on FLGKGYSDGGC [MC4R_Y35_S30F] yielded a phosphorylation enrichment of 0.818.
For RAKLFYQEVPA [METTL11B_Y76], the phosphorylation enrichment was 0.513.
VREIRCQGGNR [VWF_Y1570_Y1570C] was tested, and the phosphorylation enrichment was 0.675.
KRFAFYRDSPR [FOXE3_Y108_E103K] gave a phosphorylation enrichment of 0.526.
Sequence TAGFSYEKWEI [TEC_Y360] has a phosphorylation enrichment of 0.694.
EEEFEYMNRRR [ERBB3_Y1199_D1194E_YF] was tested, and the phosphorylation enrichment was 0.808.
Sequence DPLLTYWFPPK [LMNA_Y481_R482W] has a phosphorylation enrichment of 11.6.
Work on IKGNMYYENSY [EGFR_Y112_R108K] yielded a phosphorylation enrichment of 0.632.
Work on VLNHAYENLTR [SYNE2_Y3255_D3253H] yielded a phosphorylation enrichment of 0.5.
With NLNGKYYKPRA [ANGPTL3_Y417_N418Y] the phosphorylation enrichment was 0.61.
RSAGKDDVYLI [MECP2_Y120_Y120D] was tested, and the phosphorylation enrichment was 0.486.
With SVVVPYEPPEV [TP53_Y220] the phosphorylation enrichment was 0.798.
Sequence AEARMYGVLPW [PLP1_Y207_D203E] has a phosphorylation enrichment of 0.989.
In the case of ADKSAYLMGPN [MYH7_Y386_L390P], the phosphorylation enrichment is reported as 0.441.
Work on VPHECYAKVFD [ALB_Y394_D389V] yielded a phosphorylation enrichment of 0.945.
VKANTYEKFWL [GATM_Y100_P105L_YF] was tested, and the phosphorylation enrichment was 0.672.
Sequence FSLPAYMDRRD [COX4I1_Y38] has a phosphorylation enrichment of 0.87.
